Where two headings read alike, the source gives them in different places.
Legend:
Full-length Human OX40 [1] = biological target: T1, Full-length Human OX40 (human, UniProt P43489 29-277); experiment: cell-based or functional assay
T1 sequence: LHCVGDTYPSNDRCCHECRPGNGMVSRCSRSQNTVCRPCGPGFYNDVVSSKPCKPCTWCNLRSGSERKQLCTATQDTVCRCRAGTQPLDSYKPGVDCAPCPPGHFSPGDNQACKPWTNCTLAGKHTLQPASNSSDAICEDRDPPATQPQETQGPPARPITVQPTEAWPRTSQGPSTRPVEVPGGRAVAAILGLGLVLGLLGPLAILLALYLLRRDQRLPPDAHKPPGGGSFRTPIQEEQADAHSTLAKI

Full-length Human 4-1BB [2] = biological target: T2, Full-length Human 4-1BB (human, UniProt Q07011 24-255); experiment: cell-based or functional assay
T2 sequence (Q07011 24-255): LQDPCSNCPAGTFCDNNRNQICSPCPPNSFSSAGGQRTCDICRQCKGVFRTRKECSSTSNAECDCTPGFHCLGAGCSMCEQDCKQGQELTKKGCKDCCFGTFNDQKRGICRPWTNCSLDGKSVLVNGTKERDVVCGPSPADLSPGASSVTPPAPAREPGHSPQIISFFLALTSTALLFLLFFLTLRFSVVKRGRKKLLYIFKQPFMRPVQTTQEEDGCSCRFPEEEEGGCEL

Full-length Human OX40 [3] = biological target: T1, Full-length Human OX40; experiment: cell-based or functional assay; remark: listed apart in the source
Full-length Human 4-1BB [4] = biological target: T2, Full-length Human 4-1BB; experiment: cell-based or functional assay; remark: listed apart in the source
Human OX40 ECD-AFH = biological target: T3, Human OX40 ECD-AFH (human); experiment: SPR, construct captured, monomeric ECD as analyte
T3 construct: ECD'; entry includes the C-terminal tags; also called OXF003; Human OX40 ECD-avi-flag-his
T3 chain: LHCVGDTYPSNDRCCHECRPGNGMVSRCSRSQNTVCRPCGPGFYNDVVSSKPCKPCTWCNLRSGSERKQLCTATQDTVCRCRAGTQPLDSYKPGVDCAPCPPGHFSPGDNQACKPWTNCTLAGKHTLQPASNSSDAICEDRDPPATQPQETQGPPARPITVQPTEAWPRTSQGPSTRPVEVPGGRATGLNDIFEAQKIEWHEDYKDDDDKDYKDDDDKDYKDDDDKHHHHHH

Human 4-1BB ECD-AFH = biological target: T4, Human 4-1BB ECD-AFH (human); experiment: SPR, construct captured, monomeric ECD as analyte
T4 construct: entry includes the tags; also called FOB003; HUMAN CD137 ECD-AVI-FLAG-HIS
T4 sequence (chain, as listed by the source limits assumed): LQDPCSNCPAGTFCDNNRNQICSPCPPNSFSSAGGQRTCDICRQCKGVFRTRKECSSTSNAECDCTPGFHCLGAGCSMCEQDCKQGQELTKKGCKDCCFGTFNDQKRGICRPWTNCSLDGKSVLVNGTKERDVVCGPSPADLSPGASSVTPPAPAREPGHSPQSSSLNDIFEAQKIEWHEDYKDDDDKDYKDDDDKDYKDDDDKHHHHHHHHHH

[5] = biological target: T5, Fc gamma receptor RIIA H167 (human, UniProt P12318 36-218); experiment: SPR, construct immobilized, receptor injected at 2 uM
T5 construct: soluble SPR analyte
T5 sequence (looked up): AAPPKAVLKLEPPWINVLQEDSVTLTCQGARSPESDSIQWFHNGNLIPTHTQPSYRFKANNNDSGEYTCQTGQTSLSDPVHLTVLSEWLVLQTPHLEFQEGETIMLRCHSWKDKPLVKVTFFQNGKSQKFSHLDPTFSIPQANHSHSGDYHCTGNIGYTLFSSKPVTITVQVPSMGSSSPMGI
Protocol: (§1) Fcγ receptor binding to bispecific proteins was measured by Surface Plasmon Resonance on a Biacore 8K instrument at room temperature. Bispecific proteins with modified Fc regions to reduce binding to Fcγ receptors were directly immobilized on the surface of a CM5 sensor chip to a surface density of 4000 RU. A bispecific ADAPTIR™ protein with a wild type Fc was similarly immobilized to the surface as a positive control and used as a comparator to evaluate the reduction in binding resulting from changes incorporated into the Fc region amino acid sequence. Fcγ receptors (purchased from R&D Systems) were diluted to either 100 nM (FcγRI) or 2 μM (all other Fcγ receptors) in HBS-EP+ buffer before injecting over the surface of the prepared sensor chip at 30 μL/min for 60 seconds. Maximum RU values during association phase of each injection were used to compare the extent of binding of the modified Fc to wild type value and are reported in Table 17 below.

Fc gamma receptor RIIB/C = biological target: T6, Fc gamma receptor RIIB/C (human, UniProt P31994 46-217); experiment: as above
T6 construct: soluble SPR analyte
T6 sequence (looked up): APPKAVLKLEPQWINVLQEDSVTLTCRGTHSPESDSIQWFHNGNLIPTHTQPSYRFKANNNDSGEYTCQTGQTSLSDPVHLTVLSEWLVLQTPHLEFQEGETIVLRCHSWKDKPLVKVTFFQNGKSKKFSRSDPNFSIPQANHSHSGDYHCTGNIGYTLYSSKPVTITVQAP
Protocol: as §1

Fc gamma receptor RI = biological target: T7, Fc gamma receptor RI (human, UniProt P12314 16-288); experiment: SPR, construct immobilized, receptor injected at 100 nM
T7 construct: also called FcγRI
T7 sequence (P12314 16-288 limits assumed): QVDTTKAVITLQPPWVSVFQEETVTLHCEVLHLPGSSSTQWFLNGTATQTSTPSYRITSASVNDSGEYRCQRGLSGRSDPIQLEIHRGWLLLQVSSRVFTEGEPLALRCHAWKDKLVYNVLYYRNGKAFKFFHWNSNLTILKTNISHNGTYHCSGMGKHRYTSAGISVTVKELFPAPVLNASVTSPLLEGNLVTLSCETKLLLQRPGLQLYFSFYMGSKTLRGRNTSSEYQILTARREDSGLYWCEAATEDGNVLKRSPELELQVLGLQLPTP
Protocol: as §1

Full-length Cyno OX40 = biological target: T8, Full-length Cyno OX40 (cynomolgus monkey, UniProt P43489 29-277 (human entry)); experiment: flow cytometry on CHOK1SV cells transfected with cynomolgus OX40, goat anti-human Fc secondary antibody, MFI (Mean)
T8 construct: on CHO-K1SV cells; also called OXF004; cynomolgus OX40
T8 chain: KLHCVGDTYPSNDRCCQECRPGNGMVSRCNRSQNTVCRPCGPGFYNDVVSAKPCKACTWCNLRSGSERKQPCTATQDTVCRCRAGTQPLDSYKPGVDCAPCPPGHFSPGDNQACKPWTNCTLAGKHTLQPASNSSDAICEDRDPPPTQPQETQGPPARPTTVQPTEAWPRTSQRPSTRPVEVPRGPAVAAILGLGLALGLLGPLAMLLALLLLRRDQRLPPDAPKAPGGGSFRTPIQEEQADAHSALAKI
Protocol: Serial dilutions of ADAPTIR™ constructs were incubated with transfected target cells and subsequently labelled with a fluorescently-conjugated goat-a-human Fc secondary antibody. […] (See Example 25.)

B1: FXX01066 (bispecific antibody)
chain: EVQLVQSGAEVKKPGASVKVSCKASGYTFTSYWMNWVRQAPGQGLEWMGNIYPSGGSTNYAQKFQGRVTMTVDTSTSTVYMELSSLRSEDTAVYYCASFSDGYYAYAMDYWGQGTLVTVSSGGGGSGGGGSGGGGSGGGGSEIVMTQSPATLSLSPGERATLSCRASQSVSSYLNWYQQKPGQAPRLLIYYASRRHTGIPARFSGSGSGTDFTLTISSLQPEDFAVYYCQQGYNLPYTFGQGTKVEIKEPKSSDKTHTCPPCPAPPAAAPSVFLFPPKPKDTLMISRTPEVTCVVVDVSHEDPEVKFNWYVDGVEVHNAKTKPREEQYNSTYRVVSVLTVLHQDWLNGKEYKCAVSNKALPAPIEKTISKAKGQPREPQVYTLPPSRDELTKNQVSLTCLVKGFYPSDIAVEWESNGQPENNYKTTPPVLDSDGSFFLYSKLTVDKSRWQQGNVFSCSVMHEALHNHYTQKSLSLSPGGGGSPSSYVLTQPPSVSVAPGQTARITCGGNNIGSKSVNWFQQKPGQAPVLVVYDDSGRPSGIPERFSGSTSGNTATLTISRVEAGDEADYYCQVWDSSSDHVVFGGGTKLTVLGGGGSGGGGSGGGGSGGGGSQVQLVESGGGVVQPGRSLRLSCAASGFTLSYYGMHWVRQAPGKGLEWVAAISHDGSDKYYADSVKGRFTISRDNSKNTLYLQMNSLRAEDTAVYYCSNDQFDPWGQGTLVTVSSR
notes: ADAPTIR scFv-Fc-scFv, anti-4-1BB (VH-VL) N-terminal, anti-OX40 C-terminal, PAA (del) Fc; also called FX01066
- OX40 Reporter Assay EC50 (Full-length Human OX40 [1]): 0.012 nM
- OX40 Reporter Assay Max induction (Full-length Human OX40 [1]): 1.99e+06
- 4-1BB Reporter Assay EC50 (Full-length Human 4-1BB [2]): 0.018 nM
- 4-1BB Reporter Assay Max induction (Full-length Human 4-1BB [2]): 5.5e+06
- OX40 Reporter Assay EC50 (Full-length Human OX40 [3]): 0.021 nM
- OX40 Reporter Assay Max induction (Full-length Human OX40 [3]): 5.86e+06
- 4-1BB Reporter Assay EC50 (Full-length Human 4-1BB [4]): 0.017 nM
- 4-1BB Reporter Assay Max induction (Full-length Human 4-1BB [4]): 1.37e+06
- Kd (Human OX40 ECD-AFH): 0.5 nM
- koff (Human OX40 ECD-AFH): 0.00031 s⁻¹
- kon (Human OX40 ECD-AFH): 680000 M⁻¹ s⁻¹
- Kd (Human 4-1BB ECD-AFH): 15 nM
- koff (Human 4-1BB ECD-AFH): 0.0045 s⁻¹
- kon (Human 4-1BB ECD-AFH): 290000 M⁻¹ s⁻¹
- Max RU value during association [5]: 14 RU
- Max RU value during association (Fc gamma receptor RIIB/C): 21 RU
- Max RU value during association (Fc gamma receptor RI): 0 RU
- EC50 (read off the curve) (Full-length Cyno OX40): ~2 nM

B2: FXX01101 (bispecific antibody)
chain: EVQLVQSGAEVKKPGASVKVSCKASGYTFTSYWMNWVRQAPGQGLEWMGNIYPSGGSTNYAQKFQGRVTMTVDTSTSTVYMELSSLRSEDTAVYYCASFSDGYYAYAMDYWGQGTLVTVSSGGGGSGGGGSGGGGSGGGGSEIVMTQSPATLSLSPGERATLSCRASQSVSSYLNWYQQKPGQAPRLLIYYASRRHTGIPARFSGSGSGTDFTLTISSLQPEDFAVYYCQQGYNLPYTFGQGTKVEIKEPKSSDKTHTCPPCPAPPAAAPSVFLFPPKPKDTLMISRTPEVTCVVVDVSHEDPEVKFNWYVDGVEVHNAKTKPREEQYNSTYRVVSVLTVLHQDWLNGKEYKCAVSNKALPAPIEKTISKAKGQPREPQVYTLPPSRDELTKNQVSLTCLVKGFYPSDIAVEWESNGQPENNYKTTPPVLDSDGSFFLYSKLTVDKSRWQQGNVFSCSVMHEALHNHYTQKSLSLSPGGGGSPSSYVLTQPPSVSVAPGQTARITCGGNNIGSKSVNWFQQKPGQAPVLVVYDDSGRPSGIPERFSGSTSGNTATLTISRVEAGDEADYYCQVWDSSSDHVVFGGGTKLTVLGGGGSGGGGSGGGGSGGGGSQVQLVESGGGVVQPGRSLRLSCAASGFTLSYYGMHWVRQAPGKGLEWVAAISHDGSDKYYADSVKGRFTISRDNSKNRLYLQMNSLRAEDTAVYYCSNDQFDPWGQGTLVTVSSR
notes: ADAPTIR anti-4-1BB (HL) x anti-OX40 with T86R; PAA (del) Fc; also called FX01101
- OX40 Reporter Assay EC50 (Full-length Human OX40 [1]): 0.011 nM
- OX40 Reporter Assay Max induction (Full-length Human OX40 [1]): 2.03e+06
- 4-1BB Reporter Assay EC50 (Full-length Human 4-1BB [2]): 0.019 nM
- 4-1BB Reporter Assay Max induction (Full-length Human 4-1BB [2]): 6.96e+06
- OX40 Reporter Assay EC50 (Full-length Human OX40 [3]): 0.017 nM
- OX40 Reporter Assay Max induction (Full-length Human OX40 [3]): 5.89e+06
- 4-1BB Reporter Assay EC50 (Full-length Human 4-1BB [4]): 0.018 nM
- 4-1BB Reporter Assay Max induction (Full-length Human 4-1BB [4]): 1.44e+06
- Kd (Human OX40 ECD-AFH): 0.6 nM
- koff (Human OX40 ECD-AFH): 0.00041 s⁻¹
- kon (Human OX40 ECD-AFH): 630000 M⁻¹ s⁻¹
- Kd (Human 4-1BB ECD-AFH): 16 nM
- koff (Human 4-1BB ECD-AFH): 0.0046 s⁻¹
- kon (Human 4-1BB ECD-AFH): 290000 M⁻¹ s⁻¹
- Max RU value during association [5]: 14 RU
- Max RU value during association (Fc gamma receptor RIIB/C): 21 RU
- Max RU value during association (Fc gamma receptor RI): 0 RU
- EC50 (read off the curve) (Full-length Cyno OX40): 1 to 2 nM

B3: FXX01111 (bispecific antibody)
chain: EVQLVQSGAEVKKPGASVKVSCKASGYTFTSYWMNWVRQAPGQGLEWMGNIYPSGGSTNYAQKFQGRVTMTVDTSTSTVYMELSSLRSEDTAVYYCASFSDGYYAYAMDYWGQGTLVTVSSGGGGSGGGGSGGGGSGGGGSEIVMTQSPATLSLSPGERATLSCRASQSVSSYLNWYQQKPGQAPRLLIYYASRRHTGIPARFSGSGSGTDFTLTISSLQPEDFAVYYCQQGYNLPYTFGQGTKVEIKEPKSSDKTHTCPPCPAPPAAAPSVFLFPPKPKDTLMISRTPEVTCVVVDVSHEDPEVKFNWYVDGVEVHNAKTKPREEQYNSTYRVVSVLTVLHQDWLNGKEYKCAVSNKALPAPIEKTISKAKGQPREPQVYTLPPSRDELTKNQVSLTCLVKGFYPSDIAVEWESNGQPENNYKTTPPVLDSDGSFFLYSKLTVDKSRWQQGNVFSCSVMHEALHNHYTQKSLSLSPGGGGSPSSYVLTQPPSVSVAPGQTARITCGGNNIGSKSVNWFQQKPGQAPVLVVYDDSGRPSGVPNRFSGSTSGNTATLTISRVEAGDEADYYCQVWDSSSDHVVFGGGTKLTVLGGGGSGGGGSGGGGSGGGGSQVQLVESGGGVVQPGRSLRLSCAASGFTLSYYGMHWVRQAPGKGLEWVAAISHDGSDKYYADSVKGRFTISRDNSKNTLYLQMNSLRAEDTAVYYCSNDQFDPWGQGTLVTVSSR
notes: ADAPTIR anti-4-1BB x anti-OX40, pI variant; PAA (del) Fc
- OX40 Reporter Assay EC50 (Full-length Human OX40 [3]): 0.017 nM
- OX40 Reporter Assay Max induction (Full-length Human OX40 [3]): 6.09e+06
- 4-1BB Reporter Assay EC50 (Full-length Human 4-1BB [4]): 0.019 nM
- 4-1BB Reporter Assay Max induction (Full-length Human 4-1BB [4]): 1.43e+06
- Max RU value during association [5]: 13 RU
- Max RU value during association (Fc gamma receptor RIIB/C): 20 RU
- Max RU value during association (Fc gamma receptor RI): 0 RU
- EC50 (read off the curve) (Full-length Cyno OX40): 1 to 2 nM

Source: patent publication US20220242962A1 (APTEVO RESEARCH AND DEVELOPMENT, published 2022)
